Data published in patent US11091749B2, “Deimmunized lysostaphin and methods of use” (TRUSTEES OF DARTMOUTH COLLEGE, priority 2014, dated 2021).

B1: Flex 5: lysostaphin variant K46H, I99Q, N121G, S122D (protein, UniProt P10547 248-493, looked up, variant K46H I99Q N121G S122D)
Lysostaphin: AATHEHSAQWLNNYKKGYGYGPYPLGINGGMHYGVDFFMNIGTPVHAISSGKIVEAGWSNYGGGNQIGLIENDGVHRQWYMHLSKYNVKVGDYVKAGQQIGWSGSTGYSTAPHLHFQRMVGDFSNSTAQDPMPFLKSAGYGKAGGTVTPTPNTGWKTNKYGTLYKSESASFTPNTDIITRTTGPFRSMPQSGVLKAGQTIHYDEVMKQDGHVWVGYTGNSGQRIYLPVRTWNKSTNTLGVLWGTIK
B2: F11: variant combining cell wall binding domain mutations with Flex 9 (or derivative) catalytic domain (Table 22) (protein)
chain: AATHEHSAQWLGNYKKGYGYGPYPLGINGGMHYGVDFFMNEGTPVKAISSGKIVEAGWSNYGGGNQIGLIENDGVHRQWYMHMSKYNVKVGDYVEAGQQIGWSGSTGYSTAPHLHFQRMVGDFGNPTAQDPMPFLKSAGYGKAGGTVTPTPNTGWKTNKHGTLYKSESGSFTPNTDIITRTTGPFTSMPQSGVLKAGQTIHYDEVMKQDGHVWVGYTGNSGQRIYLPVRTWQKSTNTLGVLWGTIK
B3: F13: variant combining cell wall binding domain mutations with Flex 9 (or derivative) catalytic domain (Table 22) (protein)
chain: AATHEHSAQWLGNYKKGYGYGPYPLGINGGMHYGVDFFMNEGTPVKAISSGKIVEAGWSNYGGGNQIGLIENDGVHRQWYMHMSKYNVKVGDYVEAGQQIGWSGSTGYSTAPHLHFQRMVGDFGNPTAQDPMPFLKSAGYGKAGGTVTPTPNTGWKTNKHGTLYKNESGSFTPNTDIITRTTGPFTSMPQSGVLKAGQTIHYDEVMKQDGHVWVGYTGNSGQRIYLPVRTWQKSTDTLGVLWGTIK

Columns and labels:
[1] = test system: pooled splenocytes; conditions: mouse, in vivo
Description: HUMI mice were constructed by surgical transplantation of human bone marrow, liver, and thymus tissues into NOD/SCID/γc^−/− mice (Dartmouth Transgenics & Genetic Constructs Shared Resource) as described (Brainard, et al. (2009) J. Virol. 83:7305-21). All animals were humanized from the same human donor. Mice used experimentally had human lymphocytes as a minimum of 25% of their total peripheral blood leukocytes. Fourteen weeks post-engraftment, 12 female HUMI mice were divided into 3 groups of 4 each and immunized with a single 50 μl subcutaneous injection of 100 μg wild-type LST, 100 μg variant Flex 5, or 100 μg variant Flex 9 in complete Freund's adjuvant (CFA). Two weeks following the immunization, mice were sacrificed and splenocytes were harvested and pooled for each group. Pooled splenocytes (5×10^5/well) were plated in triplicate into 96-well plates with medium containing 5% fetal calf serum, 1-glutamine, antibiotics, and a final concentration of 10 μg/ml LST or variants (or 1% DMSO as a control). […]
In vivo immunogenicity was evaluated using NOD/SCID/γc^−/− mice that had been surgically humanized with human immune cells, liver tissue, and thymus tissue (HUMI mice). […] Cell proliferation was measured by tritiated thymidine uptake at 72 hours.

[2] = Thermostability by differential scanning fluorimetry; format: physicochemical
Procedure: The relative thermostability of the lysostaphin variants was determined by differential scanning fluorimetry, as previously described (Niesen, et al. (2007) Nat. Protocols 2:2212-2221). Proteins and SYPRO Orange were diluted in PBS (final concentrations of 100 μg/ml and 5× in 20 μl reaction volume, respectively), and fluorescence was quantified at 1-degree increments from 25 to 94° C. using an Applied Biosystems ABI 7500 fast real-time PCR system. The reactions were performed using PCR Plates for Fast Thermocyclers (VWR; Radnor, Pa.). Fluorescence was quantified using the preset TAMRA parameters. Melting temperatures were determined by data analysis with the ‘DSF Analysis v3.0.xlsx’ EXCEL sheet and GraphPad Prism v.6.02 software.

[3] = test system: pooled splenocytes; test: Transgenic DR4 murine immunogenicity study (memory response, splenocyte proliferation); format: in vivo; conditions: wild-type LST primed mice, 100 μg rechallenge
Procedure: Twelve female 6-8 week old DR4 transgenic mice (Abb Knockout/Transgenic HLA-DR4; B6.129S2-H2-Ab1tm1GruTg(HLA-DRA/H2-Ea,HLA-DRB1*0401/H2-Eb)1Kito; Taconic Farms, Germantown, N.Y.) were divided into four groups of three each and immunized with 50 μl subcutaneous injections of wild-type LST using one of the following four schemes: (i) initial immunization with 100 μg enzyme in CFA, followed by 100 μg boosts in incomplete Freund's adjuvant (IFA) on days 14 and 28; (ii) initial immunization with 20 μg enzyme in CFA, followed by 20 μg boosts in IFA on days 14 and 28; (iii) initial immunization with 100 μg enzyme in PBS buffer, followed by 100 μg boosts in PBS buffer on days 7, 14, 21 and 28; (iv) initial immunization with 20 μg enzyme in PBS buffer, followed by 20 μg boosts in PBS buffer on days 7, 14, 21 and 28. Serum IgG antibody titers against wild-type LST were measured on days 13, 20, 27, 34, and 62. […] Mice were housed without further manipulation until week 23 of the study, at which time serum IgG antibody titers were again measured and mice were divided into two experimental arms having equivalent average antibody titers. Note that during the week 9 to week 23 recovery period, two mice (the lowest titer 100 μg no adjuvant and one of the high titer 100 μg adjuvant) began suffering hair loss, weight loss, and reduced mobility and were sacrificed as per the IACUC approved protocol. […]

[4] = test system: MRSA strain 3425-3; test: MIC assay; format: cell-based, Staphylococcus aureus; conditions: biological duplicates
Procedure: (§1) The MICs of wild-type lysostaphin and its variants were determined by adding 2-fold serial dilutions of enzymes into wells of a polypropylene 96-well plate (Costar 3879) containing ˜40,000 S. aureus SA113 (or S. aureus 6445, 3425-1, 3425-3) cells in Muller Hinton broth (BD) supplemented with 2% NaCl and 0.1% bovine serum albumin, yielding a total volume of 100 μl. Plates were grown overnight at 37° C. with shaking at 900 rpm on an Orbit P4 orbital shaker (Labnet; Edison, N.J.). […] The assay was performed in triplicate for each enzyme.

[5] = test system: S. aureus 3425-1; test: MIC assay; format: cell-based, Staphylococcus aureus; conditions: biological duplicates
Procedure: as §1

[6] = test system: S. aureus SA113; test: MIC assay; format: cell-based, Staphylococcus aureus
Procedure: as §1

[7] = test system: S. aureus 6445; test: MIC assay; format: cell-based, Staphylococcus aureus; conditions: biological duplicates
[8] = test system: S. aureus cells; test: Lytic assay using purified protein (SYTOX kinetic assay); format: cell-based, Staphylococcus aureus
Procedure: S. aureus cells were grown either to mid-log or to saturation in tryptic soy broth (TSB) at 37° C. with shaking. The cells were harvested by centrifugation and washed once in phosphate buffered saline (PBS: 2.7 mM KCl, 1.5 mM KH2PO4, 8.9 mM Na2HPO4, 136.9 mM NaCl, pH 7.4). The assay was performed in 96-well, black, clear bottom plates from Greiner Bio-One (Monroe, N.C.). The final (250 μl) reaction was composed of 10 μl of P. pastoris culture supernatant, S. aureus cells at OD600=1.5, and 5 μM SYTOX Green (Thermo Fisher Scientific; Waltham, Mass.), all in PBS. Data were collected using SPECTRAMAX GEMINI Fluorescence Microplate Reader (Molecular Devices; Sunnyvale, Calif.) using an excitation/emission of 504/523 nm, and rates were determined from the slope of the steepest linear portion of the trace. Each assay was performed with 500 ng of commercially-sourced lysostaphin (ssLys) as an internal control.
The activity of purified lysostaphin variants was examined using the SYTOX kinetic assay as previously described in Chapter 2, Section 3.2.6. 200 ng of purified enzyme (instead of culture supernatant) was used in each reaction.

[9] = test system: MRSA strain USA400; test: In vitro inhibitory activity (MIC); format: cell-based, Staphylococcus aureus
Description: F11, P12 and F13 were screened for in vitro inhibitory activity against MRSA strain USA400 (FIG. 7).

[10] = test system: MRSA strain USA400; test: In vivo efficacy of F11, intraperitoneal MRSA challenge; design: species or system C57BL/6 mice; conditions: 100 μg single bolus i.v. 1 h after 2×10^8 MRSA i.p.
Procedure: Mice were challenged with an intraperitoneal injection of 2×10^8 MRSA strain USA400, and 1 hour later the mice were treated with 100 μg wild-type LST, F11 or PBS. The percent survival is shown.
The in vivo efficacy of the F11 variant was further analyzed in C57BL/6 mice. Mice were challenged with an intraperitoneal injection of 2×10^8 MRSA strain USA400, and 1 hour later the mice were treated with 100 μg wild-type LST, F11 or PBS, administered as a single bolus intravenous injection. The survival rate for both protein treatments was 1/3. The 100 μg dosage was selected because wild-type LST is known to be only partially efficacious at this dose.

[11] = Immunogenicity of F13, antibody titers by ELISA (CFA); format: in vivo, DR4 HLA transgenic mice; conditions: 100 μg s.c. in CFA, fourteen days
Procedure: (§2) The immunogenicity of the F13 variant was compared to wild-type LST in DR4 HLA transgenic mice, i.e., mice bearing partially humanized immune systems. 100 μg of wild-type LST or variant F13 were mixed with complete Freund's adjuvant and injected subcutaneously into DR4 mice. Fourteen days later, antibody titers were measured by ELISA. Variant F13 yielded more than 200-fold lower antibody titers compared to wild-type LST. To assess the impact of antibody titers on antibacterial efficacy, the mice were challenged with an intraperitoneal injection of 2×10^8 MRSA strain USA400, and 1 hour later the mice were treated with 500 μg wild-type LST, variant F13, or PBS, administered as a single bolus intravenous injection. Both mice receiving PBS sham treatments died as did both mice treated with wild-type LST. In contrast, both mice treated with variant F13 survived. Thus, the reduced immunogenicity of F13 conferred enhanced therapeutic efficacy in vivo.

[12] = test system: MRSA strain USA400; test: Efficacy of F13 in immunized mice, MRSA challenge; format: in vivo, DR4 HLA transgenic mice; conditions: 500 μg i.v. 1 h after 2×10^8 MRSA i.p.
Procedure: as §2

Row | Molecule | reduced proliferative response relative to wild-type group [1] | Tm ([2]; SYPRO Orange, PBS) | Tm ([2]; biological duplicates) | proliferation of pooled splenocytes [3] | MIC Strain 3425-3 [4] | MIC Strain 3425-1 [5] | MIC ([6]; S. aureus SA113, purified enzyme) | MIC Strain SA113 ([6]; biological duplicates) | MIC Strain 6445 [7] | % Wild-Type Activity ([8]; 200 ng purified enzyme) | % WT Lytic Rate ([8]; biological duplicates) | MIC activity relative to wild-type LST [9] | survival rate [10] | retained original MIC activity after heating ([9]; 50° C. for 1 hour prior to assay) | fold lower antibody titers compared to wild-type LST [11] | survival [12]
1 | B1 | 50% | 55.7 °C | 55.8 °C | at or below background levels | 0.05 mg/L | 0.11 mg/L | 0.1042 mg/L | 0.02 mg/L | 0.06 mg/L | 61% | 70 ± 30% |  |  |  |  | 
2 | B2 |  |  |  |  |  |  |  |  |  |  |  | 12.5% | 1/3 |  |  | 
3 | B3 |  |  |  |  |  |  |  |  |  |  |  | 12.5% |  | 25% | more than 200 fold | survived
